Test [1] addresses T1, human LAG-3 expressed on cells (human, UniProt P18627 23-525).
T1 construct: the transgene of the cell lines is not tied to it by name; also called hLAG-3; 3A9.hLAG-3
T1 sequence: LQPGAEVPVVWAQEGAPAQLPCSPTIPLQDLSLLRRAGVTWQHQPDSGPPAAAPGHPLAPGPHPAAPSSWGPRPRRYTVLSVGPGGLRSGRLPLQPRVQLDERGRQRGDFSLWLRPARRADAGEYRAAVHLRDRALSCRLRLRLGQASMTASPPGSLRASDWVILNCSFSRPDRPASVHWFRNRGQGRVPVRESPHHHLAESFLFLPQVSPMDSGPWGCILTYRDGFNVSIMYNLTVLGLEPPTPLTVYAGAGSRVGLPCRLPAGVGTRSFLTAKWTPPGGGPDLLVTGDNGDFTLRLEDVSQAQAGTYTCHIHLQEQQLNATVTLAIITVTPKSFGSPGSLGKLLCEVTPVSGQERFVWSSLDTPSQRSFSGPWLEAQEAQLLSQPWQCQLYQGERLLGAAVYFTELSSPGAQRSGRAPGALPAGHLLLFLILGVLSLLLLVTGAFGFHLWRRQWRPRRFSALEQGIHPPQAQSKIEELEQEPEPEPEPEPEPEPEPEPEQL
The experiment in a line: flow cytometry on 3A9 cells over-expressing human LAG-3. On the procedure: Binding to cell-expressed human LAG-3 was evaluated on human LAG-3 over-expressing 3A9 cells. A Nanobody dilution series was prepared in assay buffer: PBS/10% FBS/0.05% sodium azide. 1×10⁵ cells/well were transferred to a 96-well V-bottom plate and resuspended in 100 μL Nanobody dilution. After 30 minutes incubation at 4° C., the cells were washed with 100 μL/well assay buffer and resuspended in 100 μL/well of 1 μg/ml anti-FLAG (Sigma, F1804). […] Samples were incubated for 30 minutes at 4° C., washed, and resuspended in 100 μL/well of 5 nM TOPRO3 (LifeTechnologies, T3606) solution before analysis on FACS CANTO II (BD).

In a further test the target is T2, human LAG-3-hFc (human, UniProt P18627 23-450).
T2 construct: also called human LAG3-Fc; not shown: human Fc (hFc)
T2 sequence: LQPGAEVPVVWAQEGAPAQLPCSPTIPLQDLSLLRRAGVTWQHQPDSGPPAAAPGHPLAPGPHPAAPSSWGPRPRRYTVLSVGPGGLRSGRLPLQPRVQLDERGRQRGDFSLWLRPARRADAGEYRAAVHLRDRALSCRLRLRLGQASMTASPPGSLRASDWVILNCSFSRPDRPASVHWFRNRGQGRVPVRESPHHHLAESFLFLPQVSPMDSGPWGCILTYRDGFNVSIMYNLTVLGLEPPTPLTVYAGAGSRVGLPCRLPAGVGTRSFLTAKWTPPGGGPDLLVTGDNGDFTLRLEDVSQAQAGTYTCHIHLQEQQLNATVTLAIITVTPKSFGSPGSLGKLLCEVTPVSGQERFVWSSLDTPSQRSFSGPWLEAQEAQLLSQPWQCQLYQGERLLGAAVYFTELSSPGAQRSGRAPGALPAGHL
The experiment in a line: flow cytometry ligand competition; LAG-3-hFc on Daudi cells. The procedure: A Nanobody dilution series was prepared in assay buffer: HBSS/2% FBS. Prior to the experiment, Fc receptors on the Daudi cells were blocked with human Fc block (BD Pharmingen, 564220) and 5 μg/mL goat IgG (Jackson ImmunoResearch, 005-000-003) for 30 minutes at 4° C. […] 1×10⁵ cells/well were seeded in V-bottom 96-well plates and resuspended in 100 μL/well of the Nanobody/ligand dilution. After 30 minutes incubation at 4° C., the cells were washed and resuspended in 100 μL/well PE-labeled Goat anti-human IgG (Southern Biotech, 2043-09). Samples were incubated for 15 minutes at 4° C., washed, and resuspended in 100 μL/well of 5 nM TOPRO3 (LifeTechnologies, T3606) solution before analysis on FACS CANTO II (BD).

The target in test [2] is T3, human PD-1 expressed on cells (human, UniProt Q15116 25-288).
T3 construct: the transgene of the cell lines is not tied to it by name; also called hPD-1; CHO.hPD-1
T3 sequence (Q15116 25-288 limits assumed): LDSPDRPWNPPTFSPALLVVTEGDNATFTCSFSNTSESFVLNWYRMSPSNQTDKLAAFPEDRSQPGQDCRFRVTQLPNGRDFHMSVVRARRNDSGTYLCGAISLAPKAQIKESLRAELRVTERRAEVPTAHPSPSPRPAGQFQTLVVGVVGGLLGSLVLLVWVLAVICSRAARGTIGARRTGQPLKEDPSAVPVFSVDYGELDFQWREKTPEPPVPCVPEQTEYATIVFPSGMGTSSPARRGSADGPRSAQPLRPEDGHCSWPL
The experiment in a line: flow cytometry ligand competition on CHO cells over-expressing human PD-1. The procedure:
Ligand competition assays were performed on human PD-1 over-expressing CHO cells. A Nanobody dilution series was prepared in assay buffer: PBS/10% FBS/0.05% sodium azide. […] 2×10⁴ cells/well were seeded in V-bottom 96-well plates and resuspended in 200 μL/well of the Nanobody/ligand dilution. After 90 minutes incubation at 4° C., the cells were washed with 100 μL/well assay buffer and resuspended in 100 μL/well PE-labeled Goat anti-human IgG (Southern Biotech, 2043-09). Samples were incubated for 30 minutes at 4° C., washed, and resuspended in 100 μL/well of 5 nM TOPRO3 (LifeTechnologies, T3606) solution before analysis on FACS CANTO II (BD).
(In general: A flow cytometer gives signals particle by particle.)

B1: F0237611B09-FLAG3-HIS6 (VHH)
VHH: EVQLVESGGGLVQAGGSLRLSCAASGRTFSDYVMGWFRQARGNEREFVAAISESGGRTHYADAVKGRFTISRDNAKNTLYLQMNSLKPEDTAVYYCATTLLWWTSEYAPIKANDYDYWGQGTLVTVSS
notes: Original monovalent anti-human LAG-3 Nanobody; also called F0237611B09-FLAG-His6; F02376611B09
On to B1, for which the binding result (in test [1]; with human LAG-3-hFc) was “binds” each time.

B2: F023700275 (1PD102C12(A14P, A74S, K83R)-FLAG3-HIS6) (VHH)
VHH: EVQLVESGGGLVQPGGSLRLSCAASGSIASIHAMGWFRQAPGKEREFVAVITWSGGITYYADSVKGRFTISRDNSKNTVYLQMNSLRPEDTAIYYCAGDKHQSSWYDYWGQGTLVTVSS
notes: Monovalent anti-human PD-1 Nanobody, parent of F023700706
As to B2, the binding result in test [2] is “binds”.

The values above are taken from patent publication US20190330339A1 (published 2019).
